For the test, the target named is CLPP, ATP-dependent Clp protease proteolytic subunit, mitochondrial (mouse (endogenous in mouse tissues)) (UniProt O88696). Put plainly: native gel or EMSA; complexome profiling: mitochondria of WT and CLPP-null mouse testis, brain and heart (sucrose gradients), solubilised with digitonin, blue native electrophoresis on a 3 to 18% gradient gel, 48 slices, label-free mass spectrometry; co-migration read from the profiles.

The record followed here is article PMC10743472.

CLPP, ATP-dependent Clp protease proteolytic subunit, mitochondrial, O88696 53-272 (natural protein; other documents disagree on this pair), sequence (O88696 53-272): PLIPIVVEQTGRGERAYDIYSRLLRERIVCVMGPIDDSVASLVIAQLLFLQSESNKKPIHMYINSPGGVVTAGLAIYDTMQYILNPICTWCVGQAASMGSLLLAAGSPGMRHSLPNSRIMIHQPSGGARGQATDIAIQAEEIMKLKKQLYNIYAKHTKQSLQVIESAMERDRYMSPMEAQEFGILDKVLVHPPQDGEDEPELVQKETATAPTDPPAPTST

Turning to “CLPP, ATP-dependent Clp protease proteolytic subunit, mitochondrial, O88696 53-272 (natural protein; other documents disagree on this pair)”, the stoichiometry N turned out to be 7.

What is called stoichiometry N is a count of units in the complex or per binding partner.
